Measurements as given in paper PMC6767301, “Polyamines Disrupt the KaiABC Oscillator by Inducing Protein Denaturation” (Molecules, 2019).

B1: KaiB (natural protein, Synechococcus elongatus PCC 7942, UniProt Q79PF5 1-102, looked up)
chain: MSPRKTYILKLYVAGNTPNSVRALKTLKNILEVEFQGVYALKVIDVLKNPQLAEEDKILATPTLAKVLPLPVRRIIGDLSDREKVLIGLDLLYGELQDSDDF
notes: KaiB, Synechococcus elongatus PCC 7942; A few vector residues may remain after PreScission cleavage (surmised); also called Kai proteins; clock proteins; source: E. coli, purified (GSH resin, GST removed by PreScission protease, size-exclusion chromatography)
B2: KaiC (natural protein, Synechococcus elongatus PCC 7942, UniProt Q79PF4 1-519, looked up)
chain: MTSAEMTSPNNNSEHQAIAKMRTMIEGFDDISHGGLPIGRSTLVSGTSGTGKTLFSIQFLYNGIIEFDEPGVFVTFEETPQDIIKNARSFGWDLAKLVDEGKLFILDASPDPEGQEVVGGFDLSALIERINYAIQKYRARRVSIDSVTSVFQQYDASSVVRRELFRLVARLKQIGATTVMTTERIEEYGPIARYGVEEFVSDNVVILRNVLEGERRRRTLEILKLRGTSHMKGEYPFTITDHGINIFPLGAMRLTQRSSNVRVSSGVVRLDEMCGGGFFKDSIILATGATGTGKTLLVSRFVENACANKERAILFAYEESRAQLLRNAYSWGMDFEEMERQNLLKIVCAYPESAGLEDHLQIIKSEINDFKPARIAIDSLSALARGVSNNAFRQFVIGVTGYAKQEEITGLFTNTSDQFMGAHSITDSHISTITDTIILLQYVEIRGEMSRAINVFKMRGSWHDKAIREFMISDKGPDIKDSFRNFERIISGSPTRITVDEKSELSRIVRGVQEKGPES
notes: KaiC, Synechococcus elongatus PCC 7942; The sample is a mixture of phosphorylated and de-phosphorylated KaiC; A few vector residues may remain after PreScission cleavage (surmised); also called Kai proteins; clock proteins; source: E. coli, purified (GSH resin, GST removed by PreScission protease, size-exclusion chromatography)
B3: KaiA (natural protein, Synechococcus elongatus PCC 7942, UniProt Q79PF6 1-284, looked up)
chain: MLSQIAICIWVESTAILQDCQRALSADRYQLQVCESGEMLLEYAQTHRDQIDCLILVAANPSFRAVVQQLCFEGVVVPAIVVGDRDSEDPDEPAKEQLYHSAELHLGIHQLEQLPYQVDAALAEFLRLAPVETMADHIMLMGANHDPELSSQQRDLAQRLQERLGYLGVYYKRDPDRFLRNLPAYESQKLHQAMQTSYREIVLSYFSPNSNLNQSIDNFVNMAFFADVPVTKVVEIHMELMDEFAKKLRVEGRSEDILLDYRLTLIDVIAHLCEMYRRSIPRET
notes: KaiA, Synechococcus elongatus PCC 7942; A few vector residues may remain after PreScission cleavage (surmised); also called Kai proteins; clock proteins; source: E. coli, purified (GSH resin, GST removed by PreScission protease, size-exclusion chromatography)

Target: the molecule itself
Experiment: native gel or EMSA; 6% native PAGE of each Kai protein after 4 h of incubation at 30 °C with polyamines (putrescine, spermidine, spermine); 50 mM Tris-HCl pH 8.0, 150 mM NaCl, 5 mM ATP, 5 mM MgCl2, 0.01% Tween-20; total protein 1.0 mg/mL

Protein | binding result
B1 | binds
B2 | binds
B3 | binds
